From the DeepSol protein solubility set

Test: soluble on expression in E. coli; label from the status in PepcDB or PDB records

Soluble on expression in E. coli, not soluble:
MGSDKIHHHHHHMNITNNRQYSWVGSREMCLDEISIKQYGEIVIGKYGGNISAGANKNEDGALVWSNGDWEFAAILDGHNSAESVDLVVNTIQKEYENIKEMMNESIDTVFRSIENHILTIFQSSSFKEKCQRIKGETACLLCVRKENYIWWLSIGDCLVYVFHDELHKLGQYALNQRHFYEWIGNVNTFDVPVPCYSSGIRELRTGNNRIVMVTDGVLEYGERRYETPLNLYNDMNRNNIKLEESVHHVLEHVHHQFGRDSATIISWDVENKGKATYPSDQPDKK
MGSDKIHHHHHHMNKDIPVLIFSDKLNINGDYPIIKIINEQSLPYILKHEIGGLKDWFKSRVIPTNRNHLEKLIESLQFEKKPTALDYLKLNNGFSLNDSYWIKPLDISSMYPKDLCWDKYNLYDNKFEEALGLVTFFGNNTSLGGTVNTPKVSSPELTTQGVMNKAWRRTDNKLLLYKRGNIGAANLDKEHFSESIASEIGKILGLNCIPYWTDKWHNQNCSVCEIFTNKDKGYLPFRYFLEAIEPNRKKWGFANVIEWIPKEFKQDFLDMIVFDYIIENRDRHLGNFGFIIDNNTQELLSFAPLFDQGYSLMANALEEDFNKDLKEYSESHPSFVLENKDLAKYVIERNKQRYKGFTKTLRLKIDDINWFNCPNWYKEGIKKLIFTRCEVINSI
MGSDKIHHHHHHMNKEVDLSVSCLGKVKELKYDVIILPWGATEPHNLHLPYLTDCILPHDIAVEAAELALSRSGVRCMVMPPVPFGAHNPGQRELPFCIHTRYATQQAILEDIVSSLHVQGFRKLLILSGHGGNNFKGMIRDLAFEYPDFLIAAANWFEVVSPKGYFEAEIDDHAGESETSVMMHYHPELVNLAEAGDGESKPFAIASLNEKVAWVPRHWDKATVDSGVGNPKKATAEKGERYVKPIVEKLAGLFEEMAQHDLYE
MGSDKIHHHHHHMNKKGNTEEIIERLFSILSSEKDSIEFLKAVSEFSKFYEIDKKEQERRSSEAKSFVKMALQDFESVKILYQSKIYSLAVYHLQQAVEKYVKAYVLAFFGLSKKEMKGYVGHDSPKAFIRLLDRYKRSLELFLKSIQKIGGLDTQFLKISDEDIRKLVRIVNMSRKQIAEMDSNQIKGIINATIKIKIALENKEIKNQILGLLSKLKNEASEIKSSDPSEKFILEKLIDSVDRVLNNLETLLKLSSTFLVLYMLSIITYPHATFARYPNKTLPPEKYDENLGIVQYFNEIVKLLDEVANLLVYEI
MGSDKIHHHHHHMNKLINRISPETSENRILHAGFSIILMSEEITQTLSGLSSDMIIFILSGSITIYSTKEEKKTIGEQYMIFLRSFENYTYDITLGSKIIIFFFDSLTMNELPYYQHPYGILPQPISKWIELKIVEPLYGFLELVGQYLENNFLNYPLYELKRTELFYLLKKLYRKEELDYFFYLSSTHSAEFERLIAENYIKAKTVTDLAQMIGYGVNSFRMKFKKVFGIPAYEWLMQEKSKRLLVAIANSEDDFKNIIDEFDFSSHSHFYKFCKARFGYSPTELRKKLKSL
MGSDKIHHHHHHMNKLKIGTSGWVYKHWMDIFYPPNLPSDQQLSFYAQHFATVEINFSFYRLPERSVFETWHKQTPSNFLFAVKGSRYLTHMKKLKDPIEPLSRIMERASGLQEKLGPILFQFPHTWHINIERLQPFLELLQTYPKQKFTVEFRHSSWLIPQVYQLLETAGVGLCLPVSPTVPLDICLTAPWTYIRMHSGQWNVGYTDEELSTWVERIRSFLMQEIDVYVYFNNDPDGNAIRDAQRLYCLLGSC
MGSDKIHHHHHHMNLPTASRLQFTPDLNICRILNGMWQVSGAHGRINPQAAIETMFKYLDAGFTTWDLADHYGPAEDFIGEFRCQLIDTRGKDALSKVQAFTKWVPRPGKMTKKLVEENIDISLRRMNVESLDLMQFHWWEYQDKNYLDALKYMAELQTEGKIKHLGLTNFDTENLKLITEAGIKIVSNQVQFSLIDRRPEVNMAEFCQQHDIKLFTYGTLCGSLLSENYLGKPEPRGSDLSTASLKKYKNMIDAWGGWQLFQELLAILKEIANKHKVSISNVAVRYILDQPTVGGVIVGARLGVSEHIEDNAKVFSFSLDADDRDRISAVSRQSRDLYQLIGDCGDEYRR
MGSDKIHHHHHHMNMEINPSEYKILIVDDVMSNVLLLKVLLTNEKFNIVTASNGNQALDQVKKENPDLILLDVMMPDMSGFEVSQKLKADPEAAHIPIIFLTALNSTADIVKGFQVGGNDFISKPFNKEELIIRVSHQISLVAAKRIIEAKTEELKKTIIGRDKLYSVIAHDLRSPMGSIKMVLNMLILSLPKEKIGEDMYELLTMANQTTEDVFSLLDNLLKWTKSQIGKLKVVYQDIDMVEVVEGVGEIFAMVAGLKNIRLRIESPECQAVHADIDMIKTVIRNLISNAIKFSNEGSEVLIKVEESDGMSVVSVKDSGCGIDEESQKKLLHTDTHFSTFGTNNEEGSGLGLLLCQDFVVKNGGKLWFTSVKDEGSTFYFSIPLKK
MGSDKIHHHHHHMNMFSHINVDACKTPGCKNLGILGSPDYLPQGKNVLCRACGFLFPIISARSLNLFRQAANQPWKGLVKSCPHCGGTSLKKYGFSTKGERRMYCRQCNKTFISYTAIRSDARQENLATLIGEGASLVEIRAALAIDSTGFSRELQKLSRRANQAERDFVFPAFDIAMSTRAFRVKFNGGDSSLYVLVTAEEESGKVVAISTNYSAQPVEADYQYHSDYEERLPSGTLAHLVQRKEALTMRRNVLFDVDYGPAVLYKNDPGMLVKPVLPAYRHFELVQALTDERSLNVQHYLDHECFILGGCMMANFSYLRQGRCHISFVRERGVTPPKRDLPPRLFLSGGIRNNVWRTFSTRDYAMAVCNLTGNKKVSLLRHATLNSATAFIRYVHNHPFLPHLNRMSPGNVVAVLDYLKFEYNASRN
MGSDKIHHHHHHMNPEFIHGATEIETTNRGLRPHRLSKEIVERYCDPQFSAMERQPSGVRVVCRTTATSVTLTTYSTRVVYLDSGRPGGKIDVLIDGAPTSSTPTSGGETTEVNFITGATERRLKDPQVLTVDGLSEQEKVVEFWLPHNEEIEVISLKANAALNTVEDTRPVWINYGSSISHGSVATAPTKIWPAIVAQSKNYNLRNFGFGGSAMLDPFMARLIRDTPADLITLEIGINIVNGDVMRRRGLEAAVDGFINTIRDGHPTTPIKIVSPFYCPIHEKTPGPGAFDTSSFGSGQIRFIATGEPDEHGRLTLEMVREVLEGFVEKQKDPHLTYVDGASLYQASDAPLLDNLHPDEASHALIAQRLLKQL
MGSDKIHHHHHHMNPIQHILDTYPLIVLDGAMATELERKGCNLNDSLWSAKILMEEPELIKQVHTDYFAAGADCAITASYQSTFEGFAARGLSEAEARRLIELSVSIAAEARDEFWSLEENRLNRPKPIIAASIGPYGAYLADGSEYRGNYAISEDELIEFHRPRMKALIEAGADVLACETIPCLTEAKAIVRLLKEFPETYAWISFSAKDGLHISDGTPAADCASWLDEHRQIAALGINCTPLQHIPSLIEELKKNTSKPIIVYPNSGEQYDPETKTWNGAACAESYGASARTWHEKGARLIGGCCRTKPENIQEIAAWARSLKTT
MGSDKIHHHHHHMNPKMIRSLKAFTRTVELNSMSAAANELHMTVSAISQQLQRLENDNGISLFHRNTRSLSLTEAGQVFYQSCLDMLAIAAKNQERWDQLTNQPQGQIKIIAPVGFGGGLLSEPLKQLQHEFANVSFQLHMTDEPIDLITAGADLAIRIGPLADSTLYARHLADWHMVPCIAAEHPAAENSIKSFDDLPEGCFIGHIPSLPNKDFPKPKVLLNNMQTVVQLTLDGVGYALLPQPEIKHYIESGRLLRLLPEWEGSPYSVHAVLPIKDNIPAKTERTIEVLSHFFHRL
MGSDKIHHHHHHMNRELILKALIDWNFWYKNQFVGIEREYSDQLLDLLEKGLAISVIGVKRSGKSTIINQVVKKLIEKKGEDPFDTLIVNFEDSRFGDIRTANDLFSLYELYKELRKKKKDSKPYIFLDEVQKIKGWEGFVRSIVDRKEANIVISGSTASVNNKSVREVLAGRHLILEVFPLSFKEFLEFKNIRLETELDMIAKESEIKVLFSEYLSYGGFPLVVSNERDKEKILLQLYEDIIFKDVISECNIRNEEEAKNLAIFYISNVGNKIRFRKISRSLNIPFRNVQRYTECMKNAYLIFFVKALSPKLSEMAKYDKKVYCIDNGISNVLGYRLNQNIGSLFENLIFLELLRRYGINNVFYYRGRRGEVDFVVKVKDEIREIYQVTYQLSDVERELKGIEEFLKIRKTKAYIITFDDEGEIKVGDDLVKVVKGWKWLLLE
MGSDKIHHHHHHMNRIQLSQLAVLATVAETSSFRKAAEELGIAPSAVSHAVSALEASLGVRLLARTTRSVAPTEEGRQLLQKLAPALADIGTALETLAENKSNPAGPLRITMPALAAEDLIVPRLGDFLGLYPDIQLELITNDQFEDIVEKGFDAGLRLGEHLETDMVAVKASGPISGTIIGAPSYFERHPLPVHPHDLMEHRCIRRRFSSGRIYRWELEKHGKQIAVDVPDVLTLADQRLIRLAALKGVGLAFVFDQRVDKDIREGRLIRVLEDWCPPFDGFYIYYPTRRQMRPALRAFVDFFRHRS
MGSDKIHHHHHHMNRISVVILNWNGCEMLRSFLPSVLRYSEAEGVEVCVADNGSTDQSVEMLRREFPSVRRILLDGNHGFADGYNLALRQVEAEYVVLLNSDVEVTGQWLQPMAAYLDAHPEVAACQPKIRSWRQKEWFEYAGAAGGFIDRYGYPFCRGRVMGVVEADRGQYDTVLPIFWATGAAMFIRLADYREAGGLDGRFFAHMEEIDLCWRLRARGRGIVCIPQSVVYHVGGATLKKENPHKTFLNFRNNLVMLYKNLPDRELAGVMRVRCWLDYIAAATFALKGQPANAKAVVRARREFKLLRDSFRDARAENLRKTSSHFIPERIKSSILVQFYVKGRKFFSQLSDLKG
MGSDKIHHHHHHMNRLRTSFQQTTGQISGHGKRNVGVLKTAFAAVADEMASDQYGTGAIIEPFEQKFADVLGMDDAVFFPSGTMAQQVALRIWSDETDNRTVAYHPLCHLEIHEQDGLKELHPIETILVGAADRLMTLDEIKALPDIACLLLELPQREIGGVAPAFSELETISRYCRERGIRLHLDGARLFEMLPYYEKTAAEIAGLFDSIYISFYKGLGGIAGAILAGPAAFCQTARIWKRRYGGDLISLYPYIVSADYYYELRKDRMGQYYEQAKQLAEQFNALPGVHTTPEVPVSNMFHLHFDGQAADISPKLEQVQEETGLGFVGYLVDKDGYCSTEISVGDAYGELDQQTRDAGFARLRQAFS
MGSDKIHHHHHHMNSHWSEYWQQGHTTSFGEALSGNYEGVLKNVWEPVFDGLTENFLVVDVGTGNGSLPLLLRDGLSKVDLTGKVIGVDLAEVTLANSVSNNNQNIDIALMSNTRCEQLPFESNSVDLYISQFGFEYSNIEQSLEEATRVLKDDGQFVIVCHHNRSMILNRNRRILTLIDKDEVNLLINCLGKMANAMGNVSNQEDVERIKKDLQCEQIRAEINDLIKLLVMFDEAAAQDCDLMRFVAQFFKAGLFWPVTKKLEFIEFITIQMDTLKLRLTELVNAAFDETKLATFIAKFHQNNMVLNELKVLKNEQNEVLGWYLHGSKFI
MGSDKIHHHHHHMNSKNPRTTIPAPLQSILSAIPLFAPLPPDDINTLSKLIEIQVFPKNRTILHEADTANYMYLVLAGKVRVVQHSNDGTEQVLAIHRKGAFFGEMALLDGRTSPATLIAHEDATVGLIARTAFENQILTNDRMLRQIISVLCSRLRESWFLMKLSRFSSAEQKVRGVLKYLGTQYGVDDSRGKILSIKLTHRTVAGYASVSRETASRILGRFSRAGEIELLASRRMLLKPTLFLNPPFL
